Earlier results in publication PMC3385930.

What was measured:
Band 3 (Homo sapiens) = Band 3 (Homo sapiens) (UniProt P02730)
Adducin (Homo sapiens) = Adducin (Homo sapiens) (UniProt P35611)

Sequence of UniProt P02730 (P02730 whole entry): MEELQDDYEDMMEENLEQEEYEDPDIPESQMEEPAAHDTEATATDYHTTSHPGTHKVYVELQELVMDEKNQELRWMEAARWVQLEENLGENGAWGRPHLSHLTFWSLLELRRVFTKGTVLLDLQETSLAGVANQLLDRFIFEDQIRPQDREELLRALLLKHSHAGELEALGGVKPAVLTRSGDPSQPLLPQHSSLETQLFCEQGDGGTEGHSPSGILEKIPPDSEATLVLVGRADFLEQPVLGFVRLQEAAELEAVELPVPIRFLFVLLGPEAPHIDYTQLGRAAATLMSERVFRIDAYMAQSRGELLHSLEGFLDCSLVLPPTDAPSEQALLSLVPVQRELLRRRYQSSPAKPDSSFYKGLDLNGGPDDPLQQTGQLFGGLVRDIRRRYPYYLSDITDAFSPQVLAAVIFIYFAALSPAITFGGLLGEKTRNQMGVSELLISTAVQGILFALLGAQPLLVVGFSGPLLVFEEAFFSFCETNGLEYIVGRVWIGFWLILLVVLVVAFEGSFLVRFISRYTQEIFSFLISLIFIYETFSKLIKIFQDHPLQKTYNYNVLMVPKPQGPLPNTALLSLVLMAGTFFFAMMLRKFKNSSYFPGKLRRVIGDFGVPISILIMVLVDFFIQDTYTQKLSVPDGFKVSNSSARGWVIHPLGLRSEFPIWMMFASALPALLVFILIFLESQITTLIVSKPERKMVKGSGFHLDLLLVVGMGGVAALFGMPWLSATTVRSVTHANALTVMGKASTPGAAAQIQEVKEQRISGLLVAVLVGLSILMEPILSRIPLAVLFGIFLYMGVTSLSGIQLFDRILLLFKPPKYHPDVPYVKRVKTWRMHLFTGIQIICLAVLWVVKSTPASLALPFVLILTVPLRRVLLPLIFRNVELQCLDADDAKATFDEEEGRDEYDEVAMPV

| Kd (Band 3 (Homo sapiens)) [nM] | Kd (Adducin (Homo sapiens)) [nM] | Substance |
| --- | --- | --- |
| 100 | – | Adducin (from UniProt P35611) |
| – | 100 | Stomatin (from UniProt P27105) |
